The data set concerns the molecule itself. In words: crystal structure.

In general, stoichiometry N refers to a count of units in the complex or per binding partner.

B1: Histidine triad nucleotide-binding protein (HINT) from Candida albicans (enzyme, UniProt Q59WG0 1-152, looked up)
chain: MASHASCIFCKIIKGEIPSFKLIETAKTYSFLDIQPIAEAHVLIIPKHHGAKLHNIPDDYLSDILPVVKKLTKVLKLDENNTPEGEGYNVLQNNGRIAHQVVDHVHFHLIPKKDEATGLGVGWPAEATDFDKLGKLHEKLKEELAKVDNEKL
Regarding B1, the “stoichiometry N” value stood at 2.
